Measurements from US20220064276A1 (SCHOLAR ROCK, published 2022).
Positions count from the first letter of the chain named.

What was measured:
[1] = target: T1, human LTBP1-proTGFβ1 complex (human, UniProt Q14766 347-1721; P01137 30-390); assay: SPR Biacore 8K, monovalent Fab
T1 construct: Large latent complex: one presenting molecule disulfide-linked to a proTGFβ1 dimer; also called Hu LTBP1-proTGFβ1; huLTBP1 proTGFβ1
Procedure: (§1) Data collection rate was set to 10 Hz and the Biotin CAPture step was performed for 300 seconds with a flow rate of 2 μL/minute. The Biotin CAPture reagent was used after a 1:5 dilution in 1× Biacore running buffer. Biotinylated ligands (the various complexes of TGFβ1) were utilized at a concentration of 10 nM and were immobilized to the sensor chip for 180 seconds with a flow rate of 10 μL/minute. […] Analyte contact time was 120 seconds and the dissociation time was 900 seconds. The regeneration cycle utilized was 120 seconds with a flow rate of 10 μL/minute.
(§2) The evaluation method used was “multi-cycle affinity using capture” and a 1:1 binding model was used. […] Global fits were utilized for every KD determination.
(§3) The monovalent half-binding-time (T^{1/2}) value was at least 45 minutes for each of hLTBP1-proTGFβ1 and hLTBP3-proTGFβ1 complexes. The monovalent T^{1/2} value was less than 5 minutes for each of hGARP-proTGFβ1 and hLRRC33-proTGFβ1 complexes, as measured by SPR.

[2] = target: T2, human LTBP3-proTGFβ1 complex (human, UniProt Q9NS15 44-1303; P01137 30-390, limits assumed); assay: SPR Biacore 8K, monovalent Fab
T2 construct: Exemplary entries; also called Hu LTBP3-proTGFβ1; huLTBP3 proTGFb1
Procedure: as §1, §2, §3

[3] = target: T3, mouse LTBP1-proTGFβ1 complex (mouse, UniProt Q8CG19 339-1712; P04202 30-390); assay: SPR Biacore 8K, monovalent Fab
T3 construct: Exemplary entries; In the cell assays expressed from mouse LTBP1S and mouse proTGFb1 plasmids in LN229 cells; also called Mo LTBP1-proTGFβ1; MuLTBP1-ProTGFb1
T3 sequence (Q8CG19 339-1712 limits assumed, chain 1 of 2): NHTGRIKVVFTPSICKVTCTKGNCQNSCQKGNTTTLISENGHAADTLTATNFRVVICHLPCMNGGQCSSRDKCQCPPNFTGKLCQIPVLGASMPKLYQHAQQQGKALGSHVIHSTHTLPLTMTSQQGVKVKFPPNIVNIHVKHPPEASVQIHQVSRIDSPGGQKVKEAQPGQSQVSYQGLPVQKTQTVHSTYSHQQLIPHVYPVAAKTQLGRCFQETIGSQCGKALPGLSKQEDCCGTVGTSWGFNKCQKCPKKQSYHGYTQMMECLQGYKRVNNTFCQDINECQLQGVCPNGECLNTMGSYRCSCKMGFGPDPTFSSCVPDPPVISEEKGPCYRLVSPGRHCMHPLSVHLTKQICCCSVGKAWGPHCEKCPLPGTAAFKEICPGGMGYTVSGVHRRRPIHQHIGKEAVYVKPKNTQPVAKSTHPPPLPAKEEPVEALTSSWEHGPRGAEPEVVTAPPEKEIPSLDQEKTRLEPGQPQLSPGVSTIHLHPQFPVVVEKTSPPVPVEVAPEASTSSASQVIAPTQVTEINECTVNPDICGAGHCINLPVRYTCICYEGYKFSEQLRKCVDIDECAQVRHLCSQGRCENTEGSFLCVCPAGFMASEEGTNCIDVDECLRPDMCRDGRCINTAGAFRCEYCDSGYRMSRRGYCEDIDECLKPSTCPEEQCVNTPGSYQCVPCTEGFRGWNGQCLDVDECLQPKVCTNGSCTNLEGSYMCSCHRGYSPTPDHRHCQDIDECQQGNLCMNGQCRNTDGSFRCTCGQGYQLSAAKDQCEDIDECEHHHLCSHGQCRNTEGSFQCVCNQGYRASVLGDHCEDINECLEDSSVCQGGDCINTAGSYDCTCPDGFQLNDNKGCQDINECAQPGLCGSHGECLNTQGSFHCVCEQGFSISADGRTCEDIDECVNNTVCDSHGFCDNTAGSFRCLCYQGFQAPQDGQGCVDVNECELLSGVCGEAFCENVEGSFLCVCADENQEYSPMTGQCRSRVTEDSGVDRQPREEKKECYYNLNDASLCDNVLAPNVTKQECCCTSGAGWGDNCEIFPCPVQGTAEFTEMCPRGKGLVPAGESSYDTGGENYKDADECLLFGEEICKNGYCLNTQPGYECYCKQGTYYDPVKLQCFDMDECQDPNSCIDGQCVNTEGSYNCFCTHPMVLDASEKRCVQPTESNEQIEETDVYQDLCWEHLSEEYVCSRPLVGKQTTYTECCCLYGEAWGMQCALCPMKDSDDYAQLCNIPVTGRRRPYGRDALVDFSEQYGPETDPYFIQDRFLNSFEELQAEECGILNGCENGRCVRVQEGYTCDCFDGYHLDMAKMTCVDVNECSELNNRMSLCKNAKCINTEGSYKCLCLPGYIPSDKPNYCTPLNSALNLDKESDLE
T3 sequence (P04202 30-390 limits assumed, chain 2 of 2): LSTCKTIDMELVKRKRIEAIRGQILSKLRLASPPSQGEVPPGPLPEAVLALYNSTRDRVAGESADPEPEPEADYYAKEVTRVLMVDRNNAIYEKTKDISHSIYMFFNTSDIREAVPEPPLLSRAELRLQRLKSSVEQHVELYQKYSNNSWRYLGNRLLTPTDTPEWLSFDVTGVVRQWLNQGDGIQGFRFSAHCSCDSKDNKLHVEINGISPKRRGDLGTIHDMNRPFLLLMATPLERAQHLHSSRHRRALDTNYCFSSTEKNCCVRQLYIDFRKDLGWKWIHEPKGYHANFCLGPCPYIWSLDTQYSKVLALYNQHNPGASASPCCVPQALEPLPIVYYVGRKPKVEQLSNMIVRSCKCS
Procedure: as §1, §2, §3

[4] = target: T4, mouse LTBP3-proTGFβ1 complex (mouse, UniProt Q61810 41-1245; P04202 30-390, limits assumed); assay: SPR Biacore 8K, monovalent Fab
T4 construct: Exemplary entries; also called Mo LTBP3-proTGFβ1; Murine LTBP3 proTGFb1
Procedure: as §1, §2, §3

[5] = target: T5, human GARP-proTGFβ1 complex (human, UniProt Q14392 18-627; P01137 30-390, limits assumed); assay: SPR Biacore 8K, monovalent Fab
T5 construct: Exemplary entries; also called Hu GARP-proTGFβ1; huGARP proTGFb1
Procedure: as §1, §2, §3

[6] = target: T6, human LRRC33-proTGFβ1 complex (human, UniProt Q86YC3 19-650; P01137 30-390, limits assumed); assay: SPR Biacore 8K, monovalent Fab
T6 construct: Exemplary entries; also called huLRRC33 proTGFb1; HuLRRC33-ProTGFb1
T6 sequence (Q86YC3 19-650 limits assumed, chain 1 of 2): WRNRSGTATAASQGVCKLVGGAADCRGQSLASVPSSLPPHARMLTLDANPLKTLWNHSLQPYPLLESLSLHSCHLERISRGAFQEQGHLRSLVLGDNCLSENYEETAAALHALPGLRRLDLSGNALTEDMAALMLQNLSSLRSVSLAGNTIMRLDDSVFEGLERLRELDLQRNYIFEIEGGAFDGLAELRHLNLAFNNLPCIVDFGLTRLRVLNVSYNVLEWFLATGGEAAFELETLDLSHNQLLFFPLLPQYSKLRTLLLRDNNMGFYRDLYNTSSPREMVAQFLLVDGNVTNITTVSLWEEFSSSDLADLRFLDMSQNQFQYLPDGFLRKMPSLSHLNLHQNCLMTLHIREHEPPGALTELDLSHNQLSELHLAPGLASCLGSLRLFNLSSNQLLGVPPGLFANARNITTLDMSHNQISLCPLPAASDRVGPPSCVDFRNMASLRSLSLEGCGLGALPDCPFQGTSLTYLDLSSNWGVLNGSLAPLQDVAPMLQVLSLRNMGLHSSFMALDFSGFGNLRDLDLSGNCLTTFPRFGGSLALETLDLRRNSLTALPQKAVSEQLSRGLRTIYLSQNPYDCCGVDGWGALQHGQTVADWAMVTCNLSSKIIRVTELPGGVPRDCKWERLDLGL
T6 sequence (P01137 30-390 limits assumed, chain 2 of 2): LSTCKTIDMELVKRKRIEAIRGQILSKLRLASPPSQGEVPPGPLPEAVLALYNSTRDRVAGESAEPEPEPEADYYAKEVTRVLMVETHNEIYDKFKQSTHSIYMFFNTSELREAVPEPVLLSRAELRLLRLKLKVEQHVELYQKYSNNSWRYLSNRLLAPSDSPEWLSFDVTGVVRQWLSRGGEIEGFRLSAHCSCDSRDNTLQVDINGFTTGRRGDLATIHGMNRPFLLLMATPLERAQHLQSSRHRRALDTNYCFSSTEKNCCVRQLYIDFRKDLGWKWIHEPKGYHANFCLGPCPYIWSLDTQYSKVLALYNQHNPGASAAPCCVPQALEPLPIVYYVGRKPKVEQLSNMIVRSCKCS
Procedure: as §1, §2, §3

[7] = target: T7, mouse GARP-proTGFβ1 complex (mouse, UniProt G3XA59 18-628; P04202 30-390, limits assumed); assay: SPR Biacore 8K, monovalent Fab
T7 construct: Exemplary entries; also called MuGARP-ProTGFb1; Mu GARP-ProTGFβ1
Procedure: as §1, §2, §3

[8] = target: T8, mouse LRRC33-proTGFβ1 complex (mouse, UniProt Q8BMT4 20-651, limits assumed); assay: SPR Biacore 8K, monovalent Fab
T8 construct: also called MuLRRC33-ProTGFb1; Mu LRRC33-ProTGFβ1
T8 sequence (Q8BMT4 20-651 limits assumed, chain 1 of 2): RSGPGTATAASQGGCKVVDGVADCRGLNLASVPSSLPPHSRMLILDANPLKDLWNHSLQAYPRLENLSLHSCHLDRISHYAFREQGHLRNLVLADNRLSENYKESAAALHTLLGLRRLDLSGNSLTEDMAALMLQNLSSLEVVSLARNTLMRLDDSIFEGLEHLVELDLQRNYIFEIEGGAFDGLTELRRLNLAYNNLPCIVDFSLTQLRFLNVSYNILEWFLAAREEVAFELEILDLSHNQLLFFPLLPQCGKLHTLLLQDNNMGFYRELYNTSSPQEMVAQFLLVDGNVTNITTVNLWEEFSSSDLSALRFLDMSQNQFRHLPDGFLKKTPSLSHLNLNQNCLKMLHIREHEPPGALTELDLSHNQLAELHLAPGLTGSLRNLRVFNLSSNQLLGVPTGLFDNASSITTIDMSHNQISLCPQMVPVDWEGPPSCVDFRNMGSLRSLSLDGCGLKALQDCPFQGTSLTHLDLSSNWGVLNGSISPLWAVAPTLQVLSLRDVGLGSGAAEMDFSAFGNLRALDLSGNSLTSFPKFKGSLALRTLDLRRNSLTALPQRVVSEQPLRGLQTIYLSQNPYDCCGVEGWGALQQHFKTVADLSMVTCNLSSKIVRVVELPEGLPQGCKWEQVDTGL
T8 sequence (chain, as listed by the source limits assumed, chain 2 of 2): as the sequence (P04202 30-390 limits assumed, chain 2 of 2) above
Procedure: as §1, §2, §3

[9] = target: T2, human LTBP3-proTGFβ1 complex; assay: SPR Biacore 8K, Fab over captured antigen
In short: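 Biotinylated antigen complexes captured on a Biotin CAPture chip (10 nM, ~200 RU), with Fab fragments injected as analyte by multi-cycle kinetics and regeneration between cycles. Runs in HBS-EP+ pH 7.4, 0 nM analyte as reference; ka, kd and KD from a global 1:1 binding fit.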

[10] = target: T1, human LTBP1-proTGFβ1 complex; assay: SPR Biacore 8K, Fab over captured antigen; mean of 5
Procedure: (§4) A Biacore 8K system was employed to determine the monovalent binding affinity and the kinetic parameters for antigen binding of test antibodies. Association and dissociation kinetics of Fab fragments SR-AB42-HuFab, SR-AB63-HuFab and SR-AB43-HuFab to antigen complexes were measured, and resulting ka, kd and KD are provided below. Briefly, the binding kinetics were evaluated by surface plasmon resonance using Biacore 8K (GE Healthcare). Biotinylated capture antigens were immobilized to the chip (10 nM, ˜200 RU loading). A Biotin CAPture sensor chip was used to capture the biotinylated antigens. […] 0 nM was used as a reference. […] 0 nM was used as a reference. Multi-cycle kinetics was employed where each analyte concentration was injected in a separate cycle and the sensor chip surface was regenerated after each cycle. A11 the assays were carried out in freshly prepared 1× HBS-EP+ buffer (10 mM HEPES, 150 mM NaCl, 3 mM EDTA, 0.05% Tween20, pH 7.4). Data were fit globally to a 1:1 binding model to obtain the kinetic parameters. The sensorgram for 0 nM analyte concentration was used as reference.

[11] = target: T4, mouse LTBP3-proTGFβ1 complex; assay: SPR Biacore 8K, Fab over captured antigen; mean of 2
Procedure: as §4

[12] = target: T1, human LTBP1-proTGFβ1 complex; assay: SPR Biacore 8K, Fab over captured antigen, Rmax fixed
Procedure: (§5) These experiments were performed using the Biacore 8K using the method “multi-cycle kinetics/affinity using Biotin CAPture kit.”
as §1, §2

[13] = target: T2, human LTBP3-proTGFβ1 complex; assay: as above
Procedure: as §5, §1, §2

[14] = target: T3, mouse LTBP1-proTGFβ1 complex; assay: as above
Procedure: as §5, §1, §2

[15] = target: T4, mouse LTBP3-proTGFβ1 complex; assay: as above
Procedure: as §5, §1, §2

[16] = target: T5, human GARP-proTGFβ1 complex; assay: as above
Procedure: as §5, §1, §2

[17] = target: T6, human LRRC33-proTGFβ1 complex; assay: as above
Procedure: as §5, §1, §2

[18] = target: T7, mouse GARP-proTGFβ1 complex; assay: as above
Procedure: as §5, §1, §2

[19] = target: T8, mouse LRRC33-proTGFβ1 complex; assay: as above
Procedure: as §5, §1, §2

[20] = target: T5, human GARP-proTGFβ1 complex; assay: SPR Biacore 8K, Fab up to 100 nM over captured antigen
Procedure: as §4

[21] = target: T6, human LRRC33-proTGFβ1 complex; assay: as above
Procedure: as §4

[22] = target: LTBP-proTGFβ1: transfected human proTGFβ1 presented by endogenous LTBP1/3 of LN229 cells (human); assay: cell-based or functional assay
Sequence of LTBP-proTGFβ1: transfected human proTGFβ1 presented by endogenous LTBP1/3 of LN229 cells (human) (P01137 30-390): as the sequence (P01137 30-390 limits assumed, chain 2 of 2) above

[23] = target: T3, mouse LTBP1-proTGFβ1 complex; assay: cell-based or functional assay
[24] = target: T1, human LTBP1-proTGFβ1 complex; assay: Octet BLI, IgG captured
In short: (§6)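 IgG captured on the Octet biosensor, with complex antigen associating for 3 min and dissociating for 5 min in kinetics buffer. KD was fitted with a 1:1 binding model for each antibody–antigen pair.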

[25] = target: T2, human LTBP3-proTGFβ1 complex; assay: Octet BLI, IgG captured
In short: as §6

[26] = target: T3, mouse LTBP1-proTGFβ1 complex; assay: Octet BLI, IgG captured
In short: as §6

[27] = target: T4, mouse LTBP3-proTGFβ1 complex; assay: Octet BLI, IgG captured
In short: as §6

[28] = target: T5, human GARP-proTGFβ1 complex; assay: Octet BLI (N.B. = non-binder under conditions of this assay)
Procedure: Binding affinities of the optimized antibodies were measured by Octet against human LTBP1-proTGFβ1, human LTBP3-proTGFβ1, mouse LTBP1-proTGFβ1, mouse LTBP3-proTGFβ1, and GARP-proTGFβ1 complexes, essentially as described in Example 6. […] The antigens were allowed to associate for 3 minutes followed by a 5-minute dissociation. Kinetics buffer (ForteBio®) was used throughout the experiment, and KD was determined using a 1:1 fitting model for each antibody antigen pair.
Table 9 presents the binding profile and affinity data for the indicated LTBP complex-specific antibodies (IgG1-agly) identified from the light chain optimization cycle 3, determined by Octet.

T1 sequence (Q14766 347-1721 limits assumed, chain 1 of 2): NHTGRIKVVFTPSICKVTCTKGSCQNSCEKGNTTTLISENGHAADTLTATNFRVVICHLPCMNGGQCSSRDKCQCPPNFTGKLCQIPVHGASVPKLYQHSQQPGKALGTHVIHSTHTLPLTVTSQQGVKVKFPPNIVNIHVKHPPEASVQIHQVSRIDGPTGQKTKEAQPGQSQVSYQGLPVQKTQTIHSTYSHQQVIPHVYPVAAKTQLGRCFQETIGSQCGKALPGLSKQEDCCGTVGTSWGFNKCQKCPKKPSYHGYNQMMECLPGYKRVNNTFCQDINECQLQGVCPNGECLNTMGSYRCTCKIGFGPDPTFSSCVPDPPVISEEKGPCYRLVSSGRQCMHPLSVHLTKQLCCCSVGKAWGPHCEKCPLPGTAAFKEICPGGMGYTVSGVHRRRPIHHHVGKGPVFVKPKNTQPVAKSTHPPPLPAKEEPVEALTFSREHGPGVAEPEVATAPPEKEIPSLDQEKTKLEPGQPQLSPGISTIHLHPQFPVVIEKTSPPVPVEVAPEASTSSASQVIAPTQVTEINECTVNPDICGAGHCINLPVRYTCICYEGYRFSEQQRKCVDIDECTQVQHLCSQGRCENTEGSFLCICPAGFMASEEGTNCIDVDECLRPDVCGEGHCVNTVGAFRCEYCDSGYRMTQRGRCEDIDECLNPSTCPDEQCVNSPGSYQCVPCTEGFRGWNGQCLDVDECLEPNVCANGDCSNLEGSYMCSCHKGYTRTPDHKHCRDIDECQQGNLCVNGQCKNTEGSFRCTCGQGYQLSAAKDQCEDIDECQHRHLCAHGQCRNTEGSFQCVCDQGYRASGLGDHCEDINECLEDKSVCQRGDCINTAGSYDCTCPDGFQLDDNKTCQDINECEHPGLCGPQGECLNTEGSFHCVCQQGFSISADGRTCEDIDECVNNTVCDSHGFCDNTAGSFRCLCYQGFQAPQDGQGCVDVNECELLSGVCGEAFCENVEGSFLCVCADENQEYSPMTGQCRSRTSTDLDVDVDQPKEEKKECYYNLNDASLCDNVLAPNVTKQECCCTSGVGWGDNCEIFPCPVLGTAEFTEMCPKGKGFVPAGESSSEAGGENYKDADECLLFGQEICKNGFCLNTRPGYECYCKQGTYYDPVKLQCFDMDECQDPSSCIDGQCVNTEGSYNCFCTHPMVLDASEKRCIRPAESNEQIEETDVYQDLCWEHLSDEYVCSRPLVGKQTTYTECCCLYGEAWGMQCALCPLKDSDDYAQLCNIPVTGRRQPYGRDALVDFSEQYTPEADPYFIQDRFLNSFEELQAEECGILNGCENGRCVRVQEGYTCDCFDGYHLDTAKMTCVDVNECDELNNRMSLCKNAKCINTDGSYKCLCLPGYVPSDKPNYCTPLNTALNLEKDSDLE
T1 sequence (P01137 30-390 limits assumed, chain 2 of 2): as the sequence (P01137 30-390 limits assumed, chain 2 of 2) above

B1: SR-AB42-HuFab (Fab, V domains shown)
VH: QVQLVESGGGVVQPGRSLRLSCAASGFTFRSYVMHWVRQAPGKGLEWVAVISHEGSLKYYADSVKGRFTISRDNSKNTLYLQMNSLRAEDTAVYYCARPRIAARRGGFGYWGQGTLVTVSS
VL: NFMLTQPHSVSESPGKTVTISCTRSSGNIDNNYVQWYQQRPGSSPTTVIYEDNQRPSGVPDRFSGSIDSSSNSASLTISGLKTEDEADYYCQSYDYDTQGVVFGGGTKLTVL
notes: Human Fab; also called SR-AB42 Fab; LTBP-SR-AB42 HuFab
T1/2 Binding [1]: 102 min | Kd [2]: 0.57 nM | T1/2 Binding [2]: 102 min | Kd [3]: 0.6 nM | T1/2 Binding [3]: 66 min | Kd [4]: 0.68 nM | T1/2 Binding [4]: 72 min | Kd [5]: 144 nM | T1/2 Binding [5]: 1.9 min | Kd [6]: 134 nM | T1/2 Binding [6]: 4.3 min | Kd [7]: 29 nM | T1/2 Binding [7]: 5.1 min | Kd [8]: 110 nM | T1/2 Binding [8]: 7.4 min | Kd [9]: 0.35 nM | koff [9]: 0.000142 s⁻¹ | kon [9]: 405000 M⁻¹ s⁻¹ | Kd [10]: 0.194 nM | koff [10]: 0.000105 s⁻¹ | kon [10]: 543000 M⁻¹ s⁻¹ | Kd [11]: 2.66 nM | Kd [12]: 0.381 nM | Kd [13]: 0.57 nM | Kd [14]: 0.611 nM | Kd [15]: 0.68 nM | Kd [16]: 145 nM | Kd [17]: 134 nM | Kd [18]: 29.1 nM | Kd [19]: 110 nM | Kd [20]: 38.9 nM | koff [20]: 0.00604 s⁻¹ | kon [20]: 155000 M⁻¹ s⁻¹ | Kd [21]: 43.6 nM | koff [21]: 0.00353 s⁻¹ | kon [21]: 80900 M⁻¹ s⁻¹

B2: SR-AB43 (antibody, IgG1, V domains shown)
VH: B1 VH
VL: B1 VL with N31Y, Q54V, Y96S, T98N, G100R
notes: Cycle 3, lineage SR-AB23
IC50, endogenous hLTBP assay (CAGA12 luciferase) [22]: 1.76 nM | IC50, mLTBP1 assay (CAGA12 luciferase) [23]: 0.319 nM | Kd [24]: 0.649 nM | koff [24]: 0.000159 s⁻¹ | kon [24]: 244000 M⁻¹ s⁻¹ | Kd [25]: 0.178 nM | koff [25]: 6e-05 s⁻¹ | kon [25]: 337000 M⁻¹ s⁻¹ | Kd [26]: 0.731 nM | Kd [27]: 0.891 nM | binding result [28]: no binding (tested: antigen 100 nM)
